Laboratory results taken from patent publication US20230380451A1, “MEANS AND METHODS TO DETOXIFY MYCOTOXINS” (priority 2020, published 2023).
Like-named read-outs stand apart in the source and are kept apart here.

B1: Akr II: artificial amino acid sequence, variant of a wild type aldo-keto reductase (protein)
chain: MRTTEIAQGLKVSNLCIGAGPLGGMPTAFGYDVSEERGIATVQAVFDSPINFMDTSSEYGGSEARIGKVIREGLMPKGFVISSKADAEGEGVGRRGDFSAKQVRASFELSLERLGLTHLDVYFLHDPEKFPFEQVMARGGAMEELLRLKDEGLVGLVGVAGGDVLEMARYVDTGSLDILLNYGRYTLLDRSADSLITKVSDAGMAFLNAGPYASGLLAAPRGGSAWYQYAPPDATALQAVDQLHELCESFDVSLRSVALQFSMRDPRITSTVVGLSRPERVRALLDDEAAEIPAELWEQLPAPLNGDIVLPG
modifications: ArkII
B2: Akr III: artificial amino acid sequence, variant of a wild type aldo-keto reductase (protein)
chain: MRTTEIAQGLKVSNLCIGAGPLGGMPTAFGYDVSEERGIATVQAVFDSPINFMDTSSEYGGSEARIGKVIREGRMPKGFVISSKADAEGEGVGRRGDFSAKQVRASFELSLERLGLTHLDVYFLHDPEKFPFEQVMARGGAMEELLRLKDEGLVGLVGVAGGDVLEMARYVDTGSLDILLNYGRYTILDRSADSLITKVSDAGMAFLNAGPYASGLLAAPRGGSAWYQYAPPDATALQAVDQLHELCESFDVSLRSVALQFSMRDPRITSTVVGLSRPERVRALLDDEAAEIPAELWEQLPAPLNGDIVLPR
modifications: ArkIII
B3: Akr I: artificial amino acid sequence, variant of a wild type aldo-keto reductase (protein)
chain: MRTTEISQGLKVSNLCIGAGPLGGMPTAFGYDVSEERGIATVQAVFDSPINFMDTSSEYGDSEVRIGKVIREGRMPKGFVIATKADAEGDGTARRGDFSAKQVRASFELSLERLGLTHIDVYFLHDPEKFPFEHVMARGGAMEELLRLKDEGLVGLVGVAGGDVVEMARYVDTGNLDILLNYGRYTLLDRSADSLIDKASDAGMAFLNAGPYASGLLAAPRGGSAWYQYAPPNADALQAVDQLHELCESFDVSLRSVALQFSMRDPRITSTVVGLSRPERVRALLDDAAAEIPAELWDQLPAPLNLPWNSLA
modifications: ArkI

How the values were obtained:
[1] = type: biochemical; details: for temperature of maximum DON degradation activity (temperature optimum): 14.9° C. to 55.7° C. tested; for pH of maximum DON degradation activity (pH optimum): pH 2 to pH 10 tested, 30° C.
Procedure: (§1) To determine the transformation of DON to epi-THS by Akr I-III, described herein, the following assay was performed. An assay buffer was prepared containing 40 ppm DON, 1 mM NADPH in Teorell Stenhagen (TS) buffer, pH 6.0 (Östling and Virtama, Acta Physiologica Scandinavica, 1946, 11:4, 289-293). Tubes containing the assay buffer were transferred in a heating block at 30° C. The reaction was started by addition of Akr I-III to a final concentration of 200 nM in a final reaction volume of 200 μL. Samples were taken before reaction start, and 2, 5, 10, 15 and 20 min after reaction start. DON transformation reactions in these samples were stopped by mixing with absolute methanol at a 1:2 ratio, followed by a 1:100 dilution with 40% methanol. The concentrations of DON and epi-THS in the samples were determined with liquid chromatography-mass spectrometry (LC-MS) on a Sciex 5500 triple quadrupole mass spectrometer coupled to Agilent 1290 series UHPLC system, using the following MS parameters: Acquisition duration: 4 min; Scan Type: MRM (MRM); Polarity: Negative; Ion Source: Turbo Spray.
For LC, eluent A was 5% methanol, 94.9% water (ultrapure), 0.1% acetic acid, and eluent B was 99.9% methanol, 0.1% acetic acid, using a Phenomenex Kinetex 2.6 μm biphenyl 150×2.1 mm column, an injection volume of 1 μL and the protocol shown in Table 3.
By applying the DON transformation assay basically as described in Example 3, but at pH values ranging from pH 2 to pH 10, the pH optima for DON degradation of Akr I-III (SEQ ID NOs: 1-3) were determined. Akr I and Akr II reached maximum activities at pH 6.0, Akr III at pH 6.5.
By applying the DON transformation assay basically as described in Example 3, but at different temperatures ranging from 14.9° C. to 55.7° C., the temperature optima for the DON degradation activities of Akr I-III were determined. Akr I maximum activity was shown at approximately 35° C., Akr II at approximately 31° C., and Akr III at temperatures from approximately 28° C. to 33° C. (see FIG. 4). […] For Akr I even at temperatures below 20° C.

[2] = Kinetic parameters of DON transformation (Michaelis-Menten fit); type: biochemical; details: 200 nM enzyme, TS buffer pH 6.0, 1 mM NADPH
Procedure: as §1
Kinetic parameters were determined by performing the DON transformation assay as described in Example 3. Akr I-III were used at a final concentration of 200 nM in Teorell Stenhagen (TS) buffer, pH 6.0 (Ostling and Virtama, Acta Physiologica Scandinavica, 1946, 11:4, 289-293) further containing 1 mM NADPH and DON at a concentration of either 3.38 μM, 33.78 μM, 135.14 μM, 270.27 μM or 1182.43 μM. The observed reaction rates and the corresponding DON concentrations were fitted to the Michaelis-Menten function used to describe enzyme kinetics. The fitting was done using the program SigmaPlot (Systat Software Inc.) to calculate the maximum DON transformation rate of Akr I-III in the assay (Vmax), the Michaelis constant (KM) and the turnover number (kcat). […].

Molecule	temperature of maximum DON degradation activity (temperature optimum) [1]	pH of maximum DON degradation activity (pH optimum) [1]	DON degradation ([1]; 14.9° C., after 20 min of incubation)	DON degradation ([1]; pH 4.0, after 30 min)	Vmax (maximum DON transformation rate) [2]	kcat (turnover number) [2]	Km ([2]; substrate DON, read-out: KM (Michaelis constant))
B1	approximately 31 °C	6.0	–	–	–	–	–
B2	–	6.5	–	–	–	–	–
B3	approximately 35 °C	6.0	complete DON degradation	complete degradation	8471 U/mg	5.08 s⁻¹	143 µM
